Reference: PMC11271964, “Design and characterization of hyperactive mutants of the Agrobacterium tumefaciens telomere resolvase, TelA”

Legend:
[1] = target: TelA (107–442) N-terminal domain deletion mutant with the E337K mutation (Agrobacterium tumefaciens)
TelA (ΔN) = target: T1, TelA (ΔN) (Agrobacterium tumefaciens, UniProt Q7CWV1 107-442); assay: EMSA; 2 mM Ca2+; EMSA: HEPES pH 7.6, 1 mM DTT, 2 mM CaCl2, 100 ug/mL BSA, 50 mM potassium glutamate, 0.8 ug/mL supercoiled pUC19 competitor, 76 ng/mL heparin sulphate, 2 nM labeled rTel, 0 C; conditions: protein: recombinant
T1 sequence: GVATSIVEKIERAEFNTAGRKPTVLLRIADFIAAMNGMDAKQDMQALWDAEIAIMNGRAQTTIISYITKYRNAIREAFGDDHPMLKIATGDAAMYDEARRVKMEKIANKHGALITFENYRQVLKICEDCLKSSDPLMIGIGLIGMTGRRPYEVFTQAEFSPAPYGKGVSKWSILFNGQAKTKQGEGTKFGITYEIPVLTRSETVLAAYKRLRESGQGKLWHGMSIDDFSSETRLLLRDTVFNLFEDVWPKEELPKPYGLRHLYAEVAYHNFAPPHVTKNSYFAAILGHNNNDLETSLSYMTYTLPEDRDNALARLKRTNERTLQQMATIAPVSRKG

TelA wild type = target: T2, TelA wild type (Agrobacterium tumefaciens, UniProt Q7CWV1 1-442); assay: EMSA; 2 mM Ca2+; c1 and c2 complexes; EMSA: HEPES pH 7.6, 1 mM DTT, 2 mM CaCl2, 100 ug/mL BSA, 50 mM potassium glutamate, 0.8 ug/mL supercoiled pUC19 competitor, 76 ng/mL heparin sulphate, 2 nM labeled rTel, 0 C; conditions: protein: recombinant; chain copies: 2; label: 5'-fluorescein on strand 1; 5' overhang 2 nt at both ends
T2 sequence: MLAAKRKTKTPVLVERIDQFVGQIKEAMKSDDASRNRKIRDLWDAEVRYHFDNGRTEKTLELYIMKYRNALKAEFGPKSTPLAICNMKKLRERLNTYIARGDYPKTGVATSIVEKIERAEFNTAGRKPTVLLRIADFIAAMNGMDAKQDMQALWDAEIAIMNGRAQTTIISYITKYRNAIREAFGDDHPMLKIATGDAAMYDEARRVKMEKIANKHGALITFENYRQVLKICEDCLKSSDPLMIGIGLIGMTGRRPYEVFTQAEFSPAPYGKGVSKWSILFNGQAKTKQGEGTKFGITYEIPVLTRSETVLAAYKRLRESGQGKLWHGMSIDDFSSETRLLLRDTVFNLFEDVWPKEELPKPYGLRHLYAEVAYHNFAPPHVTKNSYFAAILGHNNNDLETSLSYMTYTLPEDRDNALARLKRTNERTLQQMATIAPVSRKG

[2] = target: T3, TelA N-terminal domain (N; K9E) (Agrobacterium tumefaciens, UniProt Q7CWV1 1-106, K9E); assay: EMSA; 2 mM Ca2+; EMSA: HEPES pH 7.6, 1 mM DTT, 2 mM CaCl2, 100 ug/mL BSA, 50 mM potassium glutamate, 0.8 ug/mL supercoiled pUC19 competitor, 76 ng/mL heparin sulphate, 2 nM labeled rTel, 0 C; conditions: protein: recombinant; label: 5'-fluorescein on strand 1; 5' overhang 2 nt at both ends
T3 sequence: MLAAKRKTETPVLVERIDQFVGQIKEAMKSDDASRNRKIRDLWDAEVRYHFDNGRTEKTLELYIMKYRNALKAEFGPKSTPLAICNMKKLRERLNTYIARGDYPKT

TelA (ΔC3; D202AE337K) = target: T4, TelA (ΔC3; D202AE337K) (Agrobacterium tumefaciens, UniProt Q7CWV1 1-439, D202A;E337K); assay: as above; conditions: protein: recombinant; chain copies: 2; label: 5'-fluorescein on strand 1; 5' overhang 2 nt at both ends
T4 sequence: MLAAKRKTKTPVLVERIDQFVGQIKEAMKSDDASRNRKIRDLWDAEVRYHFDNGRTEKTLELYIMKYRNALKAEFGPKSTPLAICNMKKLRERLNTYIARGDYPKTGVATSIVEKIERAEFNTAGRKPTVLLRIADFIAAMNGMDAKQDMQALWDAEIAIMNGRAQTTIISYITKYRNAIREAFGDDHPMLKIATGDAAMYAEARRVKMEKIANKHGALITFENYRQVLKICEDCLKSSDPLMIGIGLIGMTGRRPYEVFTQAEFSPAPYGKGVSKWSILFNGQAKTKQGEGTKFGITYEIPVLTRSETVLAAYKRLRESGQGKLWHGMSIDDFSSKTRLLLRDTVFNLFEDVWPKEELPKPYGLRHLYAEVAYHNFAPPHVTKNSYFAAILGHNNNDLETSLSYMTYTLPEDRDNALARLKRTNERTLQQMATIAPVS

TelA (ΔNΔC3; D202RE337K) = target: T5, TelA (ΔNΔC3; D202RE337K) (Agrobacterium tumefaciens, UniProt Q7CWV1 107-439, D202R;E337K); assay: as above; conditions: protein: recombinant; chain copies: 2; label: 5'-fluorescein on strand 1; 5' overhang 2 nt at both ends
T5 sequence: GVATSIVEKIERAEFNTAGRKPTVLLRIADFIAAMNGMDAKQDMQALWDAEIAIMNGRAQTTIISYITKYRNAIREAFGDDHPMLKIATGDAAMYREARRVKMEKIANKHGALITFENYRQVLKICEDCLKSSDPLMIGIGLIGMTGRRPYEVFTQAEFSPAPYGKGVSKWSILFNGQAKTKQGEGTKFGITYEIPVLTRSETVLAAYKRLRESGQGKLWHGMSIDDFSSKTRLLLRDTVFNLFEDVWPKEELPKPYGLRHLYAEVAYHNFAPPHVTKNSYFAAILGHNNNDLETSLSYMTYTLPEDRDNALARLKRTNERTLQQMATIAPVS

[3] = target: T6, TelA N-terminal domain (N) (Agrobacterium tumefaciens, UniProt Q7CWV1 1-106); assay: EMSA; 2 mM Ca2+; laddering bandshift; EMSA: HEPES pH 7.6, 1 mM DTT, 2 mM CaCl2, 100 ug/mL BSA, 50 mM potassium glutamate, 0.8 ug/mL supercoiled pUC19 competitor, 76 ng/mL heparin sulphate, 2 nM labeled rTel, 0 C; conditions: protein: recombinant; label: 5'-fluorescein on strand 1; 5' overhang 2 nt at both ends
T6 sequence: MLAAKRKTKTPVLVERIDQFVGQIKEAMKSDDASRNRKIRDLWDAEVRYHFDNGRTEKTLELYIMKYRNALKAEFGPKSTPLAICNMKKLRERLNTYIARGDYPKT

TelA (1–106) N-terminal domain with the K9E mutation (from UniProt A0A822V2W1 1-106) (domain or fragment)
fold reduction of the initial rate of telomere resolution by (ΔN; E337K) at 0°C when (N; K9E) is added in trans [1]: 10 fold

TelA (1–106), N-terminal domain of the Agrobacterium tumefaciens telomere resolvase TelA (from UniProt A0A822V2W1 1-106) (domain or fragment)
fold reduction of the initial rate of telomere resolution by (ΔN; E337K) at 0°C when the N-terminal domain (N, 800 nM, about 10-fold molar excess) is added in trans [1]: 22 fold

B1: hairpin telomere (hp), OKBA28F (structured_DNA)
DNA: ATCCCTCTAACCATTGCGCGATCGATCATAATAACAATATCATGATATTGTTATTATGATCGATCGCGCAATGGTTAGAGG
binding result (TelA (ΔN); label: 5'-fluorescein, hairpin, 5' overhang 3 nt): no binding

B2: rTel (OGCB951F/OGCB952) (dsDNA)
DNA 1: AACTCTAACCATTGCGCGATCGATCATAATAACAATATCATGATATTGTTATTGTAATCGATCGCGGATCCCGGGCGTAGCCACGTAGGT
DNA 2: GAACCTACGTGGCTACGCCCGGGATCCGCGATCGATTACAATAACAATATCATGATATTGTTATTATGATCGATCGCGCAATGGTTAGAG
binding result (TelA wild type): binds
binding result [2]: no binding
binding result (TelA (ΔC3; D202AE337K)): binds
binding result (TelA (ΔNΔC3; D202RE337K)): binds
binding result (TelA (ΔN); chain copies: 2, label: 5'-fluorescein on strand 1, 5' overhang 2 nt at both ends): no binding
binding result [3]: binds
